Data set [1] concerns A375SM human melanoma cells. The data set is described as follows: Trypan blue exclusion assay. Format: cell-based.
For data set [2], the system named is A375SM human melanoma cells. Put plainly: Cell adhesion assay: A375SM melanoma cell adhesion to substrata coated with CS1/OVA. Type of data set: cell-based. The settings on record: A375SM cells on coated substrata. How it is done: Cell adhesion assays were performed as previously described in Iida et al., J. Cell Biol., 118, 431-444 (1992) with minor modifications. Ligands were diluted in PBS, and 50 μl aliquots were dispersed in triplicate into Immulon-1 polystyrene microtiter wells. The wells were incubated at 37° C. overnight, and nonspecific binding sites on plastic were then blocked by treating the wells with 200 ul of PBS/BSA.
Subconfluent A375SM human melanoma cells which had been radiolabeled overnight with ^3H-thymidine (3HTdR, specific activity 6.7 Ci/mmol; NEN Research Products, Boston, Mass.), were harvested by rinsing with 1 mM EDTA, washed two times with EMEM/BSA (EMEM containing 2 mg/ml BSA and 0.15 mM Hepes, pH 7.2) and adjusted to a concentration of […] in the same medium. Aliquots of 100 ul of the cell suspension were dispensed into the wells and the cells were incubated at 37° C. for 30 min. The assays were terminated by aspirating loosely bound and unbound cells from the wells, washing the wells three times, and solubilizing the bound cells in 0.5 N NaOH containing 1% SDS. Bound radioactivity, determined in a Beckman Model 3801 Liquid Scintillation Counter, was used to calculate the percentage of cells which remained adherent to each substratum. Unless otherwise indicated, the data represent the mean of triplicate determinations. […]

Another data set concerns the target CD44 proteoglycan (human, UniProt P16070-12 21-361, limits assumed). Put plainly: SG1 peptide affinity column with 125I-labeled melanoma cell lysate; pooled eluate immunoprecipitated with anti-CD44. As to the method:
Peptide-affinity chromatography was performed according to the methods described in Iida et al., J. Cell Biol., 118, 431-444 (1992). SG1 was immobilized on CH-Spharose and blocked using standard methods as described in the manufacturer's instruction. (available from Pharmacia). Human melanoma cells were surface radiolabeled with ¹²⁵I using lactoperoxidase and extracted as described in Iida et al., Cancer Res., 55, 2177-2185 (1995). Cells were extracted with 50 mM Tris-HCl (pH 7.3) containing 50 mM β-octylglucoside, 15 mM NaCl, 1 mM Ca²+, 1 mM Mg²+, 1 mM Mn²+, 1 mM PMSF, and 1 mM NEM (extraction buffer) and then centrifuged at 36500 rpm for 1 h at 4° C. The cell lysates were first precleared by incubating with a mock-column, where no peptide was immobilized, and then applied on the SG1 column. The column was extensively washed with the extraction buffer and then bound proteins were subsequently eluted by a linear gradient of sodium chloride (15 mM to 1 M). Each fraction was counted by r-counter and positive fractions were pooled and immunoprecipitated as described below.
In order to study the function of SG1 site in α4β1 integrin, affinity chromatography was performed using immobilized SG1 polypeptide. […] Open circles represent the radioactivity in each fraction and the solid line represents the concentration of NaCl in each fraction. […]

The target of data set [3] is MPG/NG2 chondroitin sulfate proteoglycan (human) (UniProt Q6UVK1). The data set is described as follows: SG1 peptide affinity column with purified MPG/NG2, linear NaCl gradient 15 mM to 1 M.

Read-outs that look alike come from different tables or passages of the source. Where no end group is shown, it is not given here.

MPG/NG2 chondroitin sulfate proteoglycan (human), sequence (Q6UVK1 30-2322): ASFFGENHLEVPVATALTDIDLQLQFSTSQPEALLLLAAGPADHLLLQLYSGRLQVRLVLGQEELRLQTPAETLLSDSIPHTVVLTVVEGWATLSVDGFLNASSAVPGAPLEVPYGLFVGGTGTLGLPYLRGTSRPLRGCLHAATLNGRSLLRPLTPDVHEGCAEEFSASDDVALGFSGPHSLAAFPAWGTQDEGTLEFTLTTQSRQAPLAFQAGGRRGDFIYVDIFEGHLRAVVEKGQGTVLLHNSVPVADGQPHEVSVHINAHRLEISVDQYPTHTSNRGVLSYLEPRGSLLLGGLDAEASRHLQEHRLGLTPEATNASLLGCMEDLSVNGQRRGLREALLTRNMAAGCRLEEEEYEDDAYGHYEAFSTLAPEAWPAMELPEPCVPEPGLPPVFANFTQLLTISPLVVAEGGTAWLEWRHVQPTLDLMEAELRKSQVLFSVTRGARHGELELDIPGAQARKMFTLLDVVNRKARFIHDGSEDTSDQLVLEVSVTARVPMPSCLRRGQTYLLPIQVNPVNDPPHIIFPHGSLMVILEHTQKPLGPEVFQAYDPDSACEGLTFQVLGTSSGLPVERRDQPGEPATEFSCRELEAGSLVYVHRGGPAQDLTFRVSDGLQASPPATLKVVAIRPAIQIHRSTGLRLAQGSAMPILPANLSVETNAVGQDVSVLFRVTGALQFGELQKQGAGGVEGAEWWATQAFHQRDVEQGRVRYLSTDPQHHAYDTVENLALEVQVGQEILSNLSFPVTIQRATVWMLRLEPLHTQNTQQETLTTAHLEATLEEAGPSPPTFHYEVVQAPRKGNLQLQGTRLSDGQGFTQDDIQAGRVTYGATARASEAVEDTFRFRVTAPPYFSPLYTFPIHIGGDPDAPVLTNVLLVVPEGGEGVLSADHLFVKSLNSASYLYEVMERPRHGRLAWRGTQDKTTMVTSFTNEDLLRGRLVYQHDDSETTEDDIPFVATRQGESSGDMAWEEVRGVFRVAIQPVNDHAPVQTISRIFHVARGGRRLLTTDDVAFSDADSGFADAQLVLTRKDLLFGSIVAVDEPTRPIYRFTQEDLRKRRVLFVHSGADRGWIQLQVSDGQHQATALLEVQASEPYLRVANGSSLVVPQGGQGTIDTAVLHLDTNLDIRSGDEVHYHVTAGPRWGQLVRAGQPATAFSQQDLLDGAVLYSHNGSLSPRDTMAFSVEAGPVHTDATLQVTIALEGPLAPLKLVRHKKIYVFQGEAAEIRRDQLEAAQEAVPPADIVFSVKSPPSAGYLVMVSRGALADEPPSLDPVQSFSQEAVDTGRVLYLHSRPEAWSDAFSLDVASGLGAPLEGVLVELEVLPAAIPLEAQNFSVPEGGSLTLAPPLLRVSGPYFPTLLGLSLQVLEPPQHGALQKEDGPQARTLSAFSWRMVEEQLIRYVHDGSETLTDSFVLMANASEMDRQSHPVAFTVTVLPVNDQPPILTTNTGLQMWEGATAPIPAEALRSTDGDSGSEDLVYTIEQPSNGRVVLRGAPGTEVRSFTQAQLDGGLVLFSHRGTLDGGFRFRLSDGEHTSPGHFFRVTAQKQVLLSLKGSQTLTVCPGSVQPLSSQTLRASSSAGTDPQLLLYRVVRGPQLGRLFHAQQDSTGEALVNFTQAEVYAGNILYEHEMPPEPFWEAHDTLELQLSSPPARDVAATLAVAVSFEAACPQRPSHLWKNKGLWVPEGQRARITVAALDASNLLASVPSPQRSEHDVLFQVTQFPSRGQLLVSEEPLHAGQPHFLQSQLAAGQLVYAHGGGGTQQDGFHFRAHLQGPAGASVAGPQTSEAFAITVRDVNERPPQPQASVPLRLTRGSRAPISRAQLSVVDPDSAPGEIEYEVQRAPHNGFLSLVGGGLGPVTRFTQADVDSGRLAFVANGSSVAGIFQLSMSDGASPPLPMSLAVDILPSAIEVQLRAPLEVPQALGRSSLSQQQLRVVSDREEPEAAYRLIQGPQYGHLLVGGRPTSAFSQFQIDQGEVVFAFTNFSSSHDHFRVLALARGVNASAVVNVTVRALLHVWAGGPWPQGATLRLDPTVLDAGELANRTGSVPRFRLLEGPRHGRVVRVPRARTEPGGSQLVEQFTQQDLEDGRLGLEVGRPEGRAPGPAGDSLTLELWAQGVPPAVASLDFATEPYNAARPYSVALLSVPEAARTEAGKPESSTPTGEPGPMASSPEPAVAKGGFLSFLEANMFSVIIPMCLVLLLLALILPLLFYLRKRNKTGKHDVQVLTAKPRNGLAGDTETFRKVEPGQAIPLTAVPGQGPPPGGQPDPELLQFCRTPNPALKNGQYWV
CD44 proteoglycan, sequence (P16070 other isoform, or with tags, fused parts or gaps limits assumed): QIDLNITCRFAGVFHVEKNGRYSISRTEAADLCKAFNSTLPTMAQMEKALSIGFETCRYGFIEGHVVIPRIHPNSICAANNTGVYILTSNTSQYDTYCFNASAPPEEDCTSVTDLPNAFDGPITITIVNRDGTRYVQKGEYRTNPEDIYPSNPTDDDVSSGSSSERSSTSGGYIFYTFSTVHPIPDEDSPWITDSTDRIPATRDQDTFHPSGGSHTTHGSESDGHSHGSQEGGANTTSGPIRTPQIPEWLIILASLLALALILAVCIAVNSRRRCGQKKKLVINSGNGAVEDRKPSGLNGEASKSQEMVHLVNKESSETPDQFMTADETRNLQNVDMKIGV

Regarding “DELPQLVTLPHPNLHGPEILDVPST [CS1, reference compound]”, the “Toxic activity on the cells (trypan blue exclusion)” value in data set [1] (not shown) is recorded as “not be due to their toxic activity”. For the molecule LQQKKEKDIMKKTI [SG1, LQQKKEKDIMKKTI], the “Toxic activity on the cells (trypan blue exclusion)” value in data set [1] is “not be due to their toxic activity”.

B1: CS1/OVA: CS1 polypeptide chemically conjugated to ovalbumin using EDC (conjugate)
peptide: DELPQLVTLPHPNLHGPEILDVPST
chain: GSIGAASMEFCFDVFKELKVHHANENIFYCPIAIMSALAMVYLGAKDSTRTQINKVVRFDKLPGFGDSIEAQCGTSVNVHSSLRDILNQITKPNDVYSFSLASRLYAEERYPILPEYLQCVKELYRGGLEPINFQTAADQARELINSWVESQTNGIIRNVLQPSSVDSQTAMVLVNAIVFKGLWEKAFKDEDTQAMPFRVTEQESKPVQMMYQIGLFRVASMASEKMKILELPFASGTMSMLVLLPDEVSGLEQLESIINFEKLTEWTSSNVMEERKIKVYLPRMKMEEKYNLTSVLMAMGITDVFSSSANLSGISSAESLKISQAVHAAHAEINEAGREVVGSAEAGVDAASVSEEFRADHPFLFCIKHIATNAVLFFGRCVSP
In the case of B1, the “Coating concentration that promoted half maximal cell adhesion” value in data set [2] is 5 µg/mL.

B2: SG1 polypeptide (peptide)
peptide: LQQKKEKDIMKKTI
modifications: Immobilized on CH-Sepharose (CH-affinity beads) in the affinity chromatography; the coupling to the support is not carried by the letters.
notes: Synthetic peptide; used as soluble peptide in the adhesion assays; also called L-SG1; polypeptide SG1
B2: the binding result in the data set with CD44 proteoglycan is “no binding”. In data set [3], this molecule showed a NaCl concentration at elution of 0.13 to 0.15 M.

(Values after patent US20020012942A1, “POLYPEPTIDES WITH A4 INTEGRIN SUBUNIT RELATED ACTIVITY” (Regents of the University of Minnesota, priority 1998, published 2002).)
